Biological target: T1, CRB1-FLAG p.C1181R (human, UniProt P82279 26-1406, p.C1181R)
T1 construct: Made by site-directed mutagenesis of m1; also called CRB1 p.C1181R; CRB1-FLAG MT; source: HEK293T, transfected, in lysate; not shown: Strep-Strep-FLAG, N-terminal, kept
T1 sequence (looked up): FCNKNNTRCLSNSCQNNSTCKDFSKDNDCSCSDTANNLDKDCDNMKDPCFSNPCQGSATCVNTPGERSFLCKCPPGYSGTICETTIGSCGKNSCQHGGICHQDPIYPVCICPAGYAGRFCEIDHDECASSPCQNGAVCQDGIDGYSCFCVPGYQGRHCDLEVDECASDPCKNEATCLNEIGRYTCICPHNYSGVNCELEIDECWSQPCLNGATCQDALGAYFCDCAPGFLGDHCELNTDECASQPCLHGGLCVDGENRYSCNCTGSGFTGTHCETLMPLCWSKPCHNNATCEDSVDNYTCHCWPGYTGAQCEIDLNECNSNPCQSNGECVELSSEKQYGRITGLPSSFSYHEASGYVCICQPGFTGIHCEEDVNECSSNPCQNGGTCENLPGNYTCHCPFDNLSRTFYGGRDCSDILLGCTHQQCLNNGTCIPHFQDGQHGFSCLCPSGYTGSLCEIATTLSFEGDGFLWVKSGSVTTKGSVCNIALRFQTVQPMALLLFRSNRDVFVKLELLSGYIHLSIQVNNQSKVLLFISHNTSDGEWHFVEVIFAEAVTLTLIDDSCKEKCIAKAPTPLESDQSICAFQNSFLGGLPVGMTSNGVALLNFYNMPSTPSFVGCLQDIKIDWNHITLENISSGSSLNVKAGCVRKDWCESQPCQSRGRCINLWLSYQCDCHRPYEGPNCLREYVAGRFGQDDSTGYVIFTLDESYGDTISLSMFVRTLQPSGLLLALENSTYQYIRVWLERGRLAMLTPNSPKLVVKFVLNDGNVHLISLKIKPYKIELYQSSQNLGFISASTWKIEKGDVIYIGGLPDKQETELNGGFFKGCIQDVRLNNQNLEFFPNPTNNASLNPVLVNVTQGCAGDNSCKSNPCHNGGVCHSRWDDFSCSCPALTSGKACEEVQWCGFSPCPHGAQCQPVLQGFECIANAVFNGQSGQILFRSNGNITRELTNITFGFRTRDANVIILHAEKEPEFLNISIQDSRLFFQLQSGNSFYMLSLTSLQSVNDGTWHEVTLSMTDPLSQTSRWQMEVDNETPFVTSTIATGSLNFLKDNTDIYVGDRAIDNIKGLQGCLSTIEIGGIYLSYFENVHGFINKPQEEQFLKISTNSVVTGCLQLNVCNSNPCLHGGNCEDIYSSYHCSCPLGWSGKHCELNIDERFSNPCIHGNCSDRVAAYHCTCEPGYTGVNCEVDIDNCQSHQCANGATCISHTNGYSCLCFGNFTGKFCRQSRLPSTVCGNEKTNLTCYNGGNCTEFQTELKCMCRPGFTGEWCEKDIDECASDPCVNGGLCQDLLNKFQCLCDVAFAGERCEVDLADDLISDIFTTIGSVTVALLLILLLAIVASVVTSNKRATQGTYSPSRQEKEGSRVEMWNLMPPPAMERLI
Assay: co-IP; HEK293T cells co-transfected pairwise with a FLAG and an HA construct, 48 h; lysis in TBS (30 mM Tris-HCl pH 7.4, 150 mM NaCl) with 0.5% Nonidet P40; FLAG-IP on ANTI-FLAG M2 Affinity Gel 60-90 min at 4°C, elution with FLAG peptide; Western blot with HA and FLAG antibodies; for mutants HA/FLAG signal in eluates relative to WT, three biological replicates
Details: partners not purified

B1: Human canonical CRB2 (Crumbs homolog 2) (natural protein)
chain: not shown
notes: Crumbs homolog 2, human, cDNA NM_173689; Stood as bait (FLAG copy) and as prey (HA copy) in the pairwise co-IP matrix; each copy carries only one of the two tags; The FLAG copy was the bait of the mass spectrometry pull-downs; also called CRB2-FLAG; CRB2-HA; source: HEK293T, transfected, in lysate (co-IP); HEK293T, transfected, FLAG-IP on beads, washed and purified with 0.01% SDS (retina …)
- percent reduction of the interaction relative to CRB1 WT: 19%

— publication PMC10992996, “Human CRB1 and CRB2 form homo- and heteromeric protein complexes in the retina” (Life Science Alliance, 2024)
